Laboratory results: patent US20160136234A1

Key:
Test in all cases: cell-based or functional assay
ROCK-I (h) (human) = ROCK-I (h) (human) (UniProt Q13464)
[1] = target: CDK9/cyclin T1 (h) (human) (UniProt P50750)
CK2 (h) (human) = CK2 (h) (human) (UniProt P68400)
[2] = target: EGFR(T790M, L858R) (h) (human) (UniProt P00533)
Src(T341M) (h) (human) = Src(T341M) (h) (human) (UniProt P12931)
ULK3 (h) (human) = target: T1, ULK3 (h) (human) (UniProt Q6PHR2)
T1 sequence (looked up): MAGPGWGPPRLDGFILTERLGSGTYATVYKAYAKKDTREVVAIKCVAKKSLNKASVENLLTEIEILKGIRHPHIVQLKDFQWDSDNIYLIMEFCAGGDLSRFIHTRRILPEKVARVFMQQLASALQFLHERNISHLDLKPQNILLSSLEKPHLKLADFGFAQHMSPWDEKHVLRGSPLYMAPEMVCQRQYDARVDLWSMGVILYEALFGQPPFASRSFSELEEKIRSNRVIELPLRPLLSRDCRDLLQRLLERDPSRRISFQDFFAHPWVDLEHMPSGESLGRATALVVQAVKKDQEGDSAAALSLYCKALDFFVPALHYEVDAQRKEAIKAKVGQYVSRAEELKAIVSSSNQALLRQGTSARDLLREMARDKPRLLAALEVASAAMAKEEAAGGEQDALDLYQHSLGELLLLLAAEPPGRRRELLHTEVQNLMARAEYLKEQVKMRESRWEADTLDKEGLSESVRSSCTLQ

Pim-1 (h) (human) = Pim-1 (h) (human) (UniProt P11309)
PAK5 (h) (human) = PAK5 (h) (human) (UniProt Q9P286)
MAPK2 (h) (human) = MAPK2 (h) (human) (UniProt P28482)
CDK3/cyclinE (h) (human) = CDK3/cyclinE (h) (human) (UniProt Q00526)
IRAK4 (h) (human) = target: T2, IRAK4 (h) (human) (UniProt Q9NWZ3)
T2 sequence (looked up): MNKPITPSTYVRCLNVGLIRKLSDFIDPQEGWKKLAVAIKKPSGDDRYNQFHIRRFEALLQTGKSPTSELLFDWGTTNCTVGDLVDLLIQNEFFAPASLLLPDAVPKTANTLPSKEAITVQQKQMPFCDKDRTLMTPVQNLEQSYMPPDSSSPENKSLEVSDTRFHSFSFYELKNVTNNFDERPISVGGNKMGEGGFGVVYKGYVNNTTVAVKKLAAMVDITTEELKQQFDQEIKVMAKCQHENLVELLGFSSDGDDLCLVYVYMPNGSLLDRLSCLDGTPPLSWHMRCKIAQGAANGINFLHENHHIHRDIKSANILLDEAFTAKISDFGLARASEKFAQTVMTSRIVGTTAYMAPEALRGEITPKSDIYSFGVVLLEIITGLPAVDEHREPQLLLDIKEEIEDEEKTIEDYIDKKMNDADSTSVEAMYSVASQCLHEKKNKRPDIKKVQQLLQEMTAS

CDK5/p25 (h) (human) = CDK5/p25 (h) (human) (UniProt Q00535)
DAPK1 (h) (human) = DAPK1 (h) (human) (UniProt P53355)
Haspin (h) (human) = target: T3, Haspin (h) (human) (UniProt Q8TF76)
T3 sequence (looked up): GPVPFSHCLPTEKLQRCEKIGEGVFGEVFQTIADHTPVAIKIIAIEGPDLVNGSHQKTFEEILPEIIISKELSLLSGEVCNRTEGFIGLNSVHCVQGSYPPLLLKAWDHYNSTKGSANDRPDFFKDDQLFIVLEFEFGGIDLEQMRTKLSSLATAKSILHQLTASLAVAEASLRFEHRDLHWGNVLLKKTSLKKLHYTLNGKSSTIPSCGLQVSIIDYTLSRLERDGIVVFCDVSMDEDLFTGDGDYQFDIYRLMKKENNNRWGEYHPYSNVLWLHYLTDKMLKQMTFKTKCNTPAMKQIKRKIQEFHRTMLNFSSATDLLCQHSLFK

JNK3 (h) (human) = JNK3 (h) (human) (UniProt P53779)
DRAK1 (h) (human) = target: T4, DRAK1 (h) (human) (UniProt Q9UEE5)
T4 sequence (looked up): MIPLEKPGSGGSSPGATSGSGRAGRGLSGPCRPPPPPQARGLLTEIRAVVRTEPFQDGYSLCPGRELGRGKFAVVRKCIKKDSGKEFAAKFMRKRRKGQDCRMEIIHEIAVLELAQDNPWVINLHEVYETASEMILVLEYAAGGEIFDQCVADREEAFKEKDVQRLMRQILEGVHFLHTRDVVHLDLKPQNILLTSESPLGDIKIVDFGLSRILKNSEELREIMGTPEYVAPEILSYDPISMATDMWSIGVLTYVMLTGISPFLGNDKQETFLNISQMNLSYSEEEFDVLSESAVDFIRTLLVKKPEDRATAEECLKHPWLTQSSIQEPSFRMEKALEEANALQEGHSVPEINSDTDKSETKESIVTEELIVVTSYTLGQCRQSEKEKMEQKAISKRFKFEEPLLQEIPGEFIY

Sequence of MAPK2 (h) (human) (P28482 whole entry): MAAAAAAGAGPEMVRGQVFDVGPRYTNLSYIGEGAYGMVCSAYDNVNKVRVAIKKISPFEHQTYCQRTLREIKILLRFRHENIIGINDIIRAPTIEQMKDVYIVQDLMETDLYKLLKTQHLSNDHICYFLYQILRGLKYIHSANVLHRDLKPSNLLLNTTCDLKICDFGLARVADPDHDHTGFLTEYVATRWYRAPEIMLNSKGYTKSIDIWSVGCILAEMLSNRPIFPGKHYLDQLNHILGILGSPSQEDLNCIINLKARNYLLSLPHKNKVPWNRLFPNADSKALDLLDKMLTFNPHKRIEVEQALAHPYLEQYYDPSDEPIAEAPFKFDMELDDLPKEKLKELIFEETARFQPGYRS

% activity at 100 µM (ROCK-I (h) (human)): 79%
% activity at 100 µM [1]: 91%
% activity at 100 µM (CK2 (h) (human)): 90%
% activity at 100 µM [2]: 85%
% activity at 100 µM (Src(T341M) (h) (human)): 70%
% activity at 100 µM (ULK3 (h) (human)): 167%
% activity at 100 µM (Pim-1 (h) (human)): 8%
% activity at 100 µM (PAK5 (h) (human)): 110%
% activity at 100 µM (MAPK2 (h) (human)): 98%
% activity at 100 µM (CDK3/cyclinE (h) (human)): 94%
% activity at 100 µM (IRAK4 (h) (human)): 59%
% activity at 100 µM (CDK5/p25 (h) (human)): 89%
% activity at 100 µM (DAPK1 (h) (human)): 46%
% activity at 100 µM (Haspin (h) (human)): 48%
% activity at 100 µM (JNK3 (h) (human)): 89%
% activity at 100 µM (DRAK1 (h) (human)): 14%
Substance: MMI-0300 (peptide)
